One block for each binder: values may come before it.
Target: bacterial fusion protein 11-2 (a hybrid of b-galactosidase and human mammary mucin) (human) (UniProt P15941)
Test: competition RIA against 125I-labeled murine BrE-3 on 11-2 fusion protein; reciprocal of the competitor concentration giving 50% binding

- Ka: 2.68e+08 M⁻¹
B1: murine-human chimeric BrE-3 antibody (ATCC HB 11199, Chimeric BrE-3 A1C10) (antibody, V domains shown)
VH: EVKLEESGGGLVQPGGSMKLSCAASGFTFSDAWMDWVRQSPEKGLEWVAEIRNKANNHATYYDESVKGRFTISRDDSKSRVYLQMISLRAEDTGLYYCTGEFANWGQGTLVTVSA
VL: DVVMTQTPLSLPVSLGDQASISCRSSQNLVHNNGNTYLYWFLQKSGQSPKLLIYRASIRFSGVPDRFSGSGSETDFTLKISRVEAEDLGVYFCFQGTHVPWTFGGGTKLEIK

- Ka: 3.75e+08 M⁻¹
B2: murine BrE-3 monoclonal antibody (ATCC No. HB 10028) (antibody, V domains shown)
VH: B1 VH
VL: B1 VL
